Data on one substance can be found in US10370642B2, “Hematopoietic progenitor cell populations having affinity for E-selectin / L-selectin” (priority 2000, dated 2019).

One assay deals with T1, E-selectin (Homo sapiens, UniProt P16581).
T1 construct: stably transfected with full-length cDNA encoding human E-selectin; expressed in transfected cells
T1 sequence (P16581 22-610): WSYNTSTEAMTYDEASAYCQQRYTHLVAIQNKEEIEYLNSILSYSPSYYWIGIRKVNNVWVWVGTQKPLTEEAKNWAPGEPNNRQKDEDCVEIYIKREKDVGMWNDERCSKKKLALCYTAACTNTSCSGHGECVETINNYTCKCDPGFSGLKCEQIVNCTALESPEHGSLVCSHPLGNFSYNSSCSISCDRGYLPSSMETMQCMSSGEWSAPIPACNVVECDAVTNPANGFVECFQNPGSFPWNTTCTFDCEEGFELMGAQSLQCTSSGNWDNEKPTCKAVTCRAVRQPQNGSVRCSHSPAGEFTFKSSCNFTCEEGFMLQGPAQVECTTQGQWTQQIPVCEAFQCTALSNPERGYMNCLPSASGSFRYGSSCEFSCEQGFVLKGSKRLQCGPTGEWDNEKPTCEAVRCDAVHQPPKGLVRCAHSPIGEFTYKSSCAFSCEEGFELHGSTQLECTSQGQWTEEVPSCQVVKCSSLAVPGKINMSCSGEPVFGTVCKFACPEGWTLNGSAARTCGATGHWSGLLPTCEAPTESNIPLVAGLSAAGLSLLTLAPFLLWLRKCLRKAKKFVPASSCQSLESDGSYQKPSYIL
As to the kind of experiment: Blot rolling assay with CHO-E cells. The settings on record: immunoprecipitated CD44 on Western blot; 3.8 dynes/cm^2. In kind it is cell-based. The procedure:
The blot rolling assay was performed as previously described (Dimitroff et al., 2000). Briefly, CHO-E, CHO—P or CHO-Mock transfectants were isolated as described above, washed twice in HBSS and suspended at 10^7/ml in HBSS/10 mM HEPES/2mMCaCl2 (H/H/Ca++)/10% glycerol. Western blots of HPC membrane preparations stained with HECA-452 were rendered transparent by incubating them in H/H/Ca++/10% glycerol. The blots were then placed in the parallel-plate flow chamber, and CHO transfectants (2×10^6/ml) were perfused into the chamber. After allowing the cells to come in contact with the blotting membrane, the flow rate was adjusted to exert a shear stress of 3.8 dynes/cm^2. The viscosity of 10% glycerol adhesion assay medium was considered in the calculation of shear stress values. The number of cells rolling on and between each immunostained banding region was quantified under 100× magnification within each field of view on the video monitor using molecular weight markers (Kaleidoscope Molecular Weight Markers, Bio-Rad Lab.; See Blue® from Novex, Inc.) as guides to help align and visualize the apparent molecular weights of the proteins of interest. A minimum of 3 experiments was performed and results were expressed as the mean±SD of cell rolling/field at 100× magnification.

A further assay deals with T2, P-selectin (Homo sapiens, UniProt P16109).
T2 construct: CHO-P (CHO stably transfected with human cDNA encoding full length P-selectin); expressed in transfected cells
T2 sequence (P16109 42-830): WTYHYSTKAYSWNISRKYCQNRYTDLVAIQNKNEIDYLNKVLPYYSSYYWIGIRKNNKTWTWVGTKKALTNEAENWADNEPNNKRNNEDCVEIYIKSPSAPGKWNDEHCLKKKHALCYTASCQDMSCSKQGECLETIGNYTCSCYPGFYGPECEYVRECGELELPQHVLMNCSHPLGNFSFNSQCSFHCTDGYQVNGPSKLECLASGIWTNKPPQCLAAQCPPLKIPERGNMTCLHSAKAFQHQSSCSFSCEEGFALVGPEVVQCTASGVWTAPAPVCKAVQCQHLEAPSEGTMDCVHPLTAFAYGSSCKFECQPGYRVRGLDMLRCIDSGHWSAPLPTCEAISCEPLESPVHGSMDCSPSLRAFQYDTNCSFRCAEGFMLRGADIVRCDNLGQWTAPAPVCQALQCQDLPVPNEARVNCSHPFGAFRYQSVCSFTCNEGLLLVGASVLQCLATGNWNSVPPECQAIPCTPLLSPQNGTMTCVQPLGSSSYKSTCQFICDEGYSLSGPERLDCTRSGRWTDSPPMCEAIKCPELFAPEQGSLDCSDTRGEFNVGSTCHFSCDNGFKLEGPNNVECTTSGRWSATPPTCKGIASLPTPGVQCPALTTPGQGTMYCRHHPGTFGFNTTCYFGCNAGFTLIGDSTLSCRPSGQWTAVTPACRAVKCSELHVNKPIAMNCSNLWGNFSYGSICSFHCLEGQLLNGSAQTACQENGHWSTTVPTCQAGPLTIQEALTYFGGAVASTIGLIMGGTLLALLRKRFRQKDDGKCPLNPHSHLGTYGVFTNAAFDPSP
As to the kind of experiment: CHO-P cell rolling on immobilized immunoprecipitates, parallel-plate flow chamber. In kind it is cell-based. The settings on record: 2.8 dynes/cm^2. As to the method: CD44 or PSGL-1 immunoprecipitates were spotted onto plastic petri dishes, fixed in 3% glutaraldehyde and incubated in 0.2M lysine to block unreactive aldehyde groups, and then non-specific binding was prevented by incubating in 100% FBS for 1 hr at RT. Fixed spots were also treated with Vibrio cholerae neuraminidase (0.1 U/ml assay medium), which was overlaid onto the spots and incubated at 37° C. for 1 hr. The protein dishes were placed in the parallel-plate flow chamber and CHO-E, CHO-P (CHO stably transfected with human cDNA encoding full length P-selectin), CHO-P cells treated with function blocking anti-P-selectin moAb (clone AK-4; Pharmingen) (10 μg/ml), CHO-E cells treated with function blocking anti-E-selectin Abs (10 μg/ml) (clone 68-5H1 1) or Mock transfectants were perfused into the chamber (2×10^6/ml H/H/Ca++) at a flow rate of 0.2 ml/min until the cells were in contact with the substrate. The flow rate was then increased to achieve a shear stress of 2.8 dynes/cm^2. The frequency of cells rolling per 100× magnification field was determined, and data were expressed as the mean±standard deviation of 8 fields visualized from a minimum of 3 experiments.

The subject of assay [1] is L-selectin. As to the kind of experiment: Stamper-Woodruff assay of immunoprecipitated KG1a CD44 (Example 7). Format: cell-based. The settings on record: immunoprecipitate spotted onto glass slides.
Source text: To further analyze the L-selectin ligand activity of CD44, we performed Stamper-Woodruff assays using immunoprecipitated CD44 or isotype control (rat lgG)
immunoprecipitates of KG1 a cells that was spotted onto glass slides as described (Sackstein, R. & Dimitroff, C. J. (2000). Blood. 96, 2765-2774).
The test system of assay [2] is L-selectin. In words: Stamper-Woodruff assay, lymphocyte adherence to immunoprecipitated CD44 and PSGL-1. Format: cell-based, rat. Particulars: equimolar amounts; from 40 to 100 rpm.

As for “KG1a CD44: glycoform of CD44 with HECA-452 reactive sialylated, fucosylated N-glycans, immunoprecipitated from KG1a cells with Hermes-1”, the “E-selectin ligand activity (CHO-E cell rolling) in blot rolling assay” value in the assay with E-selectin was “possessed E-selectin ligand activity”. For the same substance, the “P-selectin ligand activity (CHO-P cell rolling)” value with P-selectin is given as “not a P-selectin ligand”. The L-selectin-mediated lymphocyte adherence with L-selectin [1] is listed as 362±15 bound cells/field. In the assay on L-selectin [2], the “fold higher lymphocyte adherence compared with PSGL-1” value was 5- to 10 fold.
